No end group written: not given here. *: point of attachment. Biotin = O=C1N[C@H]2[C@H](CS[C@H]2CCCCC(=O)*)N1
Legend:
Assay in all cases: flow cytometry, R4A-tetramer staining of splenocytes
[1] = target: splenocytes of BALB/c mice immunized with adjuvant alone (mouse)
[2] = target: splenocytes of BALB/c mice immunized with MAP-core (mouse)
[3] = target: peptide-reactive B cells (surface immunoglobulin) in splenocytes of BALB/c mice immunized with MAP-peptide (R4A peptide on a branched polylysine backbone) (mouse)

frequency of tetramer-binding cells (percent of the gated population) (% of the gated population) [1]: < 0.05
frequency of tetramer-binding cells (percent of the gated population) (% of the gated population) [2]: < 0.05
frequency of cells staining (percent of gated cells) (% of gated cells) [3]: 1
Binder: Biotin-DWEYSLWLSN (peptide, part only; not given: labeled streptavidin, not shown: large carriers, also: tetramer with fluorochrome-labeled streptavidin/neutravidin) [R4A-tetramer (tetrameric fluorochrome-labeled form of the R4A peptide)]

— patent US20050287607A1
